The results in this text go back to patent US20090276160A1.

Common to all, as to test: cell-based or functional assay
Test [1] concerns the target Factor Xa (Haematologic Technologies) (human) (UniProt P00742).
Test [2] has as its target Hepatocyte growth factor activator (HGFA), activated 34 kDa short form, residues Val373 to Ser655 with a C-terminal poly-histidine tag (human) (UniProt Q04756).
For test [3], the target named is Hepsin (residues 45-417) (human) (UniProt P05981).
In test [4] the target is tPA (Activase, Genentech) (human) (UniProt P00750).
Chain of tPA (Activase, Genentech) (human) (P00750 36-562 limits assumed): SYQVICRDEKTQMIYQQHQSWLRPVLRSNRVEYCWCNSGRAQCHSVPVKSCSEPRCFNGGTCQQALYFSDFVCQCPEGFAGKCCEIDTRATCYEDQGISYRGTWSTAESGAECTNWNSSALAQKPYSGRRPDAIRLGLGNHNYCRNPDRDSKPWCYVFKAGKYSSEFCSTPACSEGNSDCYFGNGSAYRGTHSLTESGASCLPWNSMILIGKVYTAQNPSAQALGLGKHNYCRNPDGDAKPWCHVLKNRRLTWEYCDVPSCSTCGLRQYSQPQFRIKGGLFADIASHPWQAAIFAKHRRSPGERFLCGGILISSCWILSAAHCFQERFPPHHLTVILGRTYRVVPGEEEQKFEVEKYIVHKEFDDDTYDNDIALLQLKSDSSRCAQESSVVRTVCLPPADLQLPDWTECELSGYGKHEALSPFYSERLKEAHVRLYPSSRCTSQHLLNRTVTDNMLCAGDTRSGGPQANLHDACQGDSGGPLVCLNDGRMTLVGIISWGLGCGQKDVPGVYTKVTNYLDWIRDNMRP
Test [5] concerns the target T1, Complement factor C1s (Calbiochem) (human) (UniProt P09871).
T1 sequence (looked up): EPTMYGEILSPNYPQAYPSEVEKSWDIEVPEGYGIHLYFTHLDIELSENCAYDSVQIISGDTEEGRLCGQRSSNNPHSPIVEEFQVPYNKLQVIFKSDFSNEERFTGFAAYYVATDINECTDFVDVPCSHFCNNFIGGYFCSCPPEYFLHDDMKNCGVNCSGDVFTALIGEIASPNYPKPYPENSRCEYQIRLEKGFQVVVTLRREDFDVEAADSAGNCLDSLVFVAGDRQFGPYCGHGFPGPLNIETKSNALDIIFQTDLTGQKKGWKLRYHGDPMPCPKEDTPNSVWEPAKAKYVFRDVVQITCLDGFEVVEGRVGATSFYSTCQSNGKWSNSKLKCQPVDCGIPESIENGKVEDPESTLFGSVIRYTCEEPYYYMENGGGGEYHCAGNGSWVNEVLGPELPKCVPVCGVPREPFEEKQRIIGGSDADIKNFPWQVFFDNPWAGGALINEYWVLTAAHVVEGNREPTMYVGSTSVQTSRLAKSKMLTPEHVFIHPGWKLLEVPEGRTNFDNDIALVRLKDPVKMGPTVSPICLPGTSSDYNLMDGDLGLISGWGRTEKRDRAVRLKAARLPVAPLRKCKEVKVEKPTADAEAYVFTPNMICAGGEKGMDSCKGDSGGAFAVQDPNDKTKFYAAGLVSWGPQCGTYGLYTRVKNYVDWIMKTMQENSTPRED

In test [6] the target is T2, Matriptase (residues 615-855) (human) (UniProt Q9Y5Y6).
T2 sequence (looked up): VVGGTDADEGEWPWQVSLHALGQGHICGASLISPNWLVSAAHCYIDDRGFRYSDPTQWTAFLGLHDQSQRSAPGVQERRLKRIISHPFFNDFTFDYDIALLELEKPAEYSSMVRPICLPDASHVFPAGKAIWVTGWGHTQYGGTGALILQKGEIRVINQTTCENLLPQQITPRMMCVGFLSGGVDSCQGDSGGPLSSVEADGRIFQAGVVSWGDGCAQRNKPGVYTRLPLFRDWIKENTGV

Test [7] deals with Factor XIa (Haematologic Technologies) (human) (UniProt P03951).
Test [8] addresses Plasma kallikrein (American Diagnostica) (human) (UniProt P03952).
Test [9] concerns the target Chymotrypsin (Sigma) (human) (UniProt P17538).
The target of test [10] is Factor XIIa (American Diagnostica) (human) (UniProt P00748).
Chain of Factor XIIa (American Diagnostica) (human) (P00748 20-615 limits assumed): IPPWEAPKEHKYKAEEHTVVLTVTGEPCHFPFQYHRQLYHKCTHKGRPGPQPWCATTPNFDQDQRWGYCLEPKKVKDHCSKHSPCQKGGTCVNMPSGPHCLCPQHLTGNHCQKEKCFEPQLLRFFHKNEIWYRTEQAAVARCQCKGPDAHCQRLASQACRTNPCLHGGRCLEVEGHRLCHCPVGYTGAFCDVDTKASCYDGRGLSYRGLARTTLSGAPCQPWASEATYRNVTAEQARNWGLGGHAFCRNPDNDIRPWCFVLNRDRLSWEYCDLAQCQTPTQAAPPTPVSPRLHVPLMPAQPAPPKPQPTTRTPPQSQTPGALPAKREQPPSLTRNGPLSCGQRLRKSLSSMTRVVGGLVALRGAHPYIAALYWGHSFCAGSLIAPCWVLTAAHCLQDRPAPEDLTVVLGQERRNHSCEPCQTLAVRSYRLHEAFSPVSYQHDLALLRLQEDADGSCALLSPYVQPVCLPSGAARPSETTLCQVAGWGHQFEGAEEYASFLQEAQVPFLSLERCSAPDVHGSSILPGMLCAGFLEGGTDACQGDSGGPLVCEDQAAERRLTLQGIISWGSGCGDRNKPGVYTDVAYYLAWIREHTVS
For test [11], the target named is Activated Protein C (Haematologic Technologies) (human) (UniProt P04070).
Chain of Activated Protein C (Haematologic Technologies) (human) (P04070 43-197, form in doubt, chain 1 of 2): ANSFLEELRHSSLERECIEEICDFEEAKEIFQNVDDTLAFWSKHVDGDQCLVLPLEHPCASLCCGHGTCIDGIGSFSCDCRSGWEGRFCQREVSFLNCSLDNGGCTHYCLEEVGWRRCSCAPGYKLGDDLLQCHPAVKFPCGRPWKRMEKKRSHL
Chain of Activated Protein C (Haematologic Technologies) (human) (P04070 212-461, form in doubt, chain 2 of 2): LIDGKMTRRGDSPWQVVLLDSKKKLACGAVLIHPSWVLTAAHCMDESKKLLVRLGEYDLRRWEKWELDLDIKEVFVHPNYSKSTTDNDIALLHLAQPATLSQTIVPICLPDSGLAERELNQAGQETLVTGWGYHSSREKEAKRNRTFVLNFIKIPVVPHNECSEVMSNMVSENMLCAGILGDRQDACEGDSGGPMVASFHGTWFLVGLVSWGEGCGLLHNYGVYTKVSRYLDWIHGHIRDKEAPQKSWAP
The target in test [12] is Plasmin (Haematologic Technologies) (human) (UniProt P00747).
Chain of Plasmin (Haematologic Technologies) (human) (P00747 97-810 limits assumed): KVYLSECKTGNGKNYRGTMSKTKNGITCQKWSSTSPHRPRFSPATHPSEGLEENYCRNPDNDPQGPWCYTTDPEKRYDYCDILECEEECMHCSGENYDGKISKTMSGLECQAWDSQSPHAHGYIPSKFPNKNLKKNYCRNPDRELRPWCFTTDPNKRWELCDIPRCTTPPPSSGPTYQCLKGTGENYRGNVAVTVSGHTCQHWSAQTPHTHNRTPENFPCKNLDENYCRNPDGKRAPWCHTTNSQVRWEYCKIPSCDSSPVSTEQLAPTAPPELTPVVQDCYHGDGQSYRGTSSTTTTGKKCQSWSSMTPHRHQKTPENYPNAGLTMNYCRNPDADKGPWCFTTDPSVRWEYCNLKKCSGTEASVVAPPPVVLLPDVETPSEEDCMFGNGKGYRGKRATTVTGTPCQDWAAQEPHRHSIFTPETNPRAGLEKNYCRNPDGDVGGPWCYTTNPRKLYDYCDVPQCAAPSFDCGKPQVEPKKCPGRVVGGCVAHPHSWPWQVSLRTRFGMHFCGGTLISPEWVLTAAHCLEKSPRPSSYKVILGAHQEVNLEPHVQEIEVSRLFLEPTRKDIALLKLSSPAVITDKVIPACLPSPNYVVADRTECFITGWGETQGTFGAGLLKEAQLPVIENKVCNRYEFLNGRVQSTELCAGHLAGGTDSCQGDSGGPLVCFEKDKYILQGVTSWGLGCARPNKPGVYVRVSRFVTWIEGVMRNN
In test [13] the target is Tissue factor/factor VIIa complex: human tissue factor (residues 1-219) with human recombinant FVIIa (human) (UniProt P13726).
Test [14] deals with Bovine trypsin (Worthington) (bovine) (UniProt P00760).
Chain of Bovine trypsin (Worthington) (bovine) (P00760 24-246): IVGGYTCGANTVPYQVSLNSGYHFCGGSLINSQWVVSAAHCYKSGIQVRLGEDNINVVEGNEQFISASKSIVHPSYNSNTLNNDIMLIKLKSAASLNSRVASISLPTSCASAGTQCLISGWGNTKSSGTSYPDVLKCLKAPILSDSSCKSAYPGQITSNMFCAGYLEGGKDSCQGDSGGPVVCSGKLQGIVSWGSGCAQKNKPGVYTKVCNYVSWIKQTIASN
For the next test, the target named is uPA (Chemicon) (human) (UniProt P00749).
In test [15] the target is Thrombin (Haematologic Technologies) (human) (UniProt P00734).

Chain of sHAI-1B, soluble HAI-1B ectodomain (O43278 36-465 limits assumed): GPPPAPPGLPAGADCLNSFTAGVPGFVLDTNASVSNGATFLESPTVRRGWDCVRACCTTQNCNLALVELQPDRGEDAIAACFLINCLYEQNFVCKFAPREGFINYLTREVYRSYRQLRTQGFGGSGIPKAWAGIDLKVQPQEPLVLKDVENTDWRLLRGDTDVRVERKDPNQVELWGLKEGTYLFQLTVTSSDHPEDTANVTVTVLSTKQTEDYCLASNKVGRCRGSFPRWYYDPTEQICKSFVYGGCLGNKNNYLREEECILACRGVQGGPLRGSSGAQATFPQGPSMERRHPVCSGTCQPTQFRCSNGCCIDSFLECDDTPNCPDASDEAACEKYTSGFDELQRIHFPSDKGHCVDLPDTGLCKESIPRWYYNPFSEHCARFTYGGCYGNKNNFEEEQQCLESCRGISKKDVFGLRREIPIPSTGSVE
Chain of Plasma kallikrein (American Diagnostica) (human) (P03952 20-638 limits assumed): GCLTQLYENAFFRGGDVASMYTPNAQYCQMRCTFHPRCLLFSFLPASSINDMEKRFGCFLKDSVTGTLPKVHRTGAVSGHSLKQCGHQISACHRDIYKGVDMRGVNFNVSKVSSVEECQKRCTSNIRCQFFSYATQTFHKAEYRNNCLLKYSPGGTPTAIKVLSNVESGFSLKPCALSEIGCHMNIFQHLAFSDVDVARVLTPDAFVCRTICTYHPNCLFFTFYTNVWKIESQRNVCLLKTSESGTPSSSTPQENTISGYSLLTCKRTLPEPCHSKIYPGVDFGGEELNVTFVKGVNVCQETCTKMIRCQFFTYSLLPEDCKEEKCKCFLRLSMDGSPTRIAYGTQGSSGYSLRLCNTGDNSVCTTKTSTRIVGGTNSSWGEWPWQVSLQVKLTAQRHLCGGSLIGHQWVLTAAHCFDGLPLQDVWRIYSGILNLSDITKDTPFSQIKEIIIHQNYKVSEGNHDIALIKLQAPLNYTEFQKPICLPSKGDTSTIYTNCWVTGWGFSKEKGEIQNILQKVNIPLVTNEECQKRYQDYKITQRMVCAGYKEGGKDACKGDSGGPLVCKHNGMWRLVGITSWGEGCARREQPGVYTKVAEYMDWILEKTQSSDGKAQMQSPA
Chain of Hepatocyte growth factor activator (HGFA), activated 34 kDa short form, residues Val373 to Ser655 with a C-terminal poly-histidine tag (human) (Q04756 373-407, chain 1 of 2): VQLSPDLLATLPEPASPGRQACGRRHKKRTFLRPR
Chain of Hepatocyte growth factor activator (HGFA), activated 34 kDa short form, residues Val373 to Ser655 with a C-terminal poly-histidine tag (human) (Q04756 408-655, chain 2 of 2): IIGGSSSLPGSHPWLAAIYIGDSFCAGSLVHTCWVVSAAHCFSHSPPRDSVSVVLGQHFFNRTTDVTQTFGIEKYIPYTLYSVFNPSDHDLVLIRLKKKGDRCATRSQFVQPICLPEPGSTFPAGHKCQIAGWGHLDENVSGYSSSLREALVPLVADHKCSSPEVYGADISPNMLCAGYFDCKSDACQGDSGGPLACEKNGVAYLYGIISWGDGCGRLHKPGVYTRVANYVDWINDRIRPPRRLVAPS
Chain of Hepsin (residues 45-417) (human) (P05981 45-417 limits assumed): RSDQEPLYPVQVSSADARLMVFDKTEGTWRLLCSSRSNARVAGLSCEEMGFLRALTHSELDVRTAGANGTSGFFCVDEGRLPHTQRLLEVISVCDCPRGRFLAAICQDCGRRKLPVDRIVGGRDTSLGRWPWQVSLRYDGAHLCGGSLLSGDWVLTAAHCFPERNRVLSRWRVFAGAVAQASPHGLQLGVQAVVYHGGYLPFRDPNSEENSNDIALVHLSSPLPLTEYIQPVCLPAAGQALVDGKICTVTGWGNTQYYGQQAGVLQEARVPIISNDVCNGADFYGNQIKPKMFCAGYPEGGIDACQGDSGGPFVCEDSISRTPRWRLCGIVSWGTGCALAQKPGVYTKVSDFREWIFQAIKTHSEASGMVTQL
Chain of Chymotrypsin (Sigma) (human) (P17538 19-263): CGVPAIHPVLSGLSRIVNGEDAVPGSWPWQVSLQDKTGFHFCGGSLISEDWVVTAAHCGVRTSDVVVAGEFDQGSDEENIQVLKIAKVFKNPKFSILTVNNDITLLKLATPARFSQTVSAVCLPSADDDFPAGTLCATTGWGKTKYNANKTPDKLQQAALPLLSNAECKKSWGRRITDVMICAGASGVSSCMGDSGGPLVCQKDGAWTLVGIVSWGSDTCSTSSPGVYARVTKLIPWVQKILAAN
Chain of Factor Xa (Haematologic Technologies) (human) (P00742 41-179 limits assumed, chain 1 of 2): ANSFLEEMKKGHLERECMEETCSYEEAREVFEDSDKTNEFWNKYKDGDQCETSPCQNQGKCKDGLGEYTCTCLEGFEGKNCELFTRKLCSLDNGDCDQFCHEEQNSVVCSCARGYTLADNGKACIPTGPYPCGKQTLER
Chain of Factor Xa (Haematologic Technologies) (human) (P00742 235-488 limits assumed, chain 2 of 2): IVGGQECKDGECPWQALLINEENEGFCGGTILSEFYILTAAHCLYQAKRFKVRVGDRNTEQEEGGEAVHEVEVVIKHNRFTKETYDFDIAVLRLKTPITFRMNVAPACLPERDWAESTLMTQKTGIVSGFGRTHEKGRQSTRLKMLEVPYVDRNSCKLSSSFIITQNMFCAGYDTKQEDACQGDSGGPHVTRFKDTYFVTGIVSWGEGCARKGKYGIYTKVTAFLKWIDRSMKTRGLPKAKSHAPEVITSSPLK

For the substance “sHAI-1B, soluble HAI-1B ectodomain (from UniProt O43278 36-465)”, the IC50 (nM), inhibition of enzyme activity on chromogenic substrate is over 2000 nM in test [1]; 30.5 nM in [2]; 21.1 nM in test [3]; over 2000 nM in test [4]; over 2000 nM in [5]; 16.5 nM in [6]. Further, the IC50 (nM), inhibition of enzyme activity on chromogenic substrate in [7] was over 2000 nM; in [8], 686 nM; in test [9] it was over 2000 nM; in test [10] it was over 2000 nM; in test [11], over 2000 nM; in test [12] it was 399 nM. In addition, the IC50 (nM), inhibition of enzyme activity on chromogenic substrate was over 2000 nM in test [13], 2.4 nM in test [14], over 2000 nM with uPA (Chemicon) (human) and over 2000 nM in test [15]. The IC50 (sHAI-1B)/IC50 (KD1) in test [2] was 8; in [3], 3; in [6] it was 10; in test [8] it was 33; in [12], 3; in [14], 3.
